T1: cynomolgus IL-36R overexpressed on 293T-CynoIL36R-NFκB cells (cynomolgus monkey)
T1 construct: Entry includes the signal peptide; also called monkey IL-36R
T1 chain: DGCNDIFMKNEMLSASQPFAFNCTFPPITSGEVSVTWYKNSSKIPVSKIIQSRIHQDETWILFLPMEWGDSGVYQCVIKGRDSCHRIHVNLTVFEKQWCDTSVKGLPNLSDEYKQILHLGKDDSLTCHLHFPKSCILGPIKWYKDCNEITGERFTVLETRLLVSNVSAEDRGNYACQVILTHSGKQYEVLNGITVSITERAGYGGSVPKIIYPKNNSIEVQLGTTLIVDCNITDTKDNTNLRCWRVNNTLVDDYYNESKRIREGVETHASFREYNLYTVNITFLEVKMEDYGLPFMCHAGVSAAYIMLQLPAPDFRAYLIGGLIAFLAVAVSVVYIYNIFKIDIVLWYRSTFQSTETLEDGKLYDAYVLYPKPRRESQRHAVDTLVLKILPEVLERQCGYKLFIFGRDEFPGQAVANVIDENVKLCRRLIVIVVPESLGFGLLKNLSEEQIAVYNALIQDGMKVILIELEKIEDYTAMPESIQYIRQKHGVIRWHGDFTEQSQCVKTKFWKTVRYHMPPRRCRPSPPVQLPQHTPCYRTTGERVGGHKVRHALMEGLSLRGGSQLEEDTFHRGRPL

T2: CynoIL36R-ECD mFc recombinant protein (cynomolgus monkey)
T2 construct: Made in ExpiCHO, purified on Protein A; also called cynomolgus IL-36R extracellular region with mouse antibody heavy chain Fc
T2 chain: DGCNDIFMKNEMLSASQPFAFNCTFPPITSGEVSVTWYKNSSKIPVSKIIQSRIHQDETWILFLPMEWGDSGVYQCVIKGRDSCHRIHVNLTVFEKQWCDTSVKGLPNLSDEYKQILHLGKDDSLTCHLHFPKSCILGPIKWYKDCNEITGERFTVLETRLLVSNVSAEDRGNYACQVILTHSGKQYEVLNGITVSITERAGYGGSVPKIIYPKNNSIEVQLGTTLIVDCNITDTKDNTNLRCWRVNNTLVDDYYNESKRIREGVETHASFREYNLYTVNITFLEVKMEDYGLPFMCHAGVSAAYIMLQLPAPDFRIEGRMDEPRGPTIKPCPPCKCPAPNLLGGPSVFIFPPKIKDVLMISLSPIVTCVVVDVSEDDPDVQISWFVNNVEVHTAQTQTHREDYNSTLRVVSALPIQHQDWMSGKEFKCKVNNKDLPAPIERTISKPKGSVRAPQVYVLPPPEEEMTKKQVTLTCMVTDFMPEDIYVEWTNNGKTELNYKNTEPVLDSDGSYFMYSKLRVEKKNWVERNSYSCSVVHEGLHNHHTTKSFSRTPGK

T3: Human IL-1Rrp2/IL-1R6 protein, His Tag (ACROBiosystems, IL2-H52H6) (human, UniProt Q9HB29 20-335)
T3 construct: Bought protein; the soluble protein is likely only the extracellular part; also called hIL-36R; human IL36R antigen; not shown: His tag
T3 sequence: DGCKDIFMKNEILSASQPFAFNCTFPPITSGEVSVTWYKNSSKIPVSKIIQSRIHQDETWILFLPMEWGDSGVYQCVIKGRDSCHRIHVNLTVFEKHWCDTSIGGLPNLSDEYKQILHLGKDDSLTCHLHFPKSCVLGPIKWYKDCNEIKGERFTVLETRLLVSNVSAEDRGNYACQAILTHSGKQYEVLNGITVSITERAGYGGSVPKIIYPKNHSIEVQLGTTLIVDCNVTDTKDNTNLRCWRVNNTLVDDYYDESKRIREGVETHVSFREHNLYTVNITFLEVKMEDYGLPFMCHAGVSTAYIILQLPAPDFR

B1: BI655130 (antibody, human IgG1, kappa, L234A L235A)
heavy: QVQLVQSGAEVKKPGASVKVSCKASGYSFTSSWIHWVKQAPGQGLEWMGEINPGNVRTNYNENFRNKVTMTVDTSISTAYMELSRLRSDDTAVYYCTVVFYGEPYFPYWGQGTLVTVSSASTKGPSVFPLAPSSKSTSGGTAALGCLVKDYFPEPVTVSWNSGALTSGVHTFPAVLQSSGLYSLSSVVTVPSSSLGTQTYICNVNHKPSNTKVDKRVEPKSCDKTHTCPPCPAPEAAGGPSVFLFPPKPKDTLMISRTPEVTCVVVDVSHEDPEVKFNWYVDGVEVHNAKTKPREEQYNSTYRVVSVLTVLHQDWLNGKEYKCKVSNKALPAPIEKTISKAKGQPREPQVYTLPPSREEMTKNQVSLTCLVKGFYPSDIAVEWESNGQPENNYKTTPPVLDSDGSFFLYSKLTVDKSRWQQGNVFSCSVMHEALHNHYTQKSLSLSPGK
light: QIVLTQSPGTLSLSPGERATMTCTASSSVSSSYFHWYQQKPGQAPRLWIYRTSRLASGVPDRFSGSGSGTDFTLTISRLEPEDAATYYCHQFHRSPLTFGAGTKLEIKRTVAAPSVFIFPPSDEQLKSGTASVVCLLNNFYPREAKVQWKVDNALQSGNSQESVTEQDSKDSTYSLSSTLTLSKADYEKHKVYACEVTHQGLSSPVTKSFNRGEC
notes: also called Spesolimab
B2: chimeric 72C1 antibody (antibody, human IgG4 S228P, kappa)
heavy: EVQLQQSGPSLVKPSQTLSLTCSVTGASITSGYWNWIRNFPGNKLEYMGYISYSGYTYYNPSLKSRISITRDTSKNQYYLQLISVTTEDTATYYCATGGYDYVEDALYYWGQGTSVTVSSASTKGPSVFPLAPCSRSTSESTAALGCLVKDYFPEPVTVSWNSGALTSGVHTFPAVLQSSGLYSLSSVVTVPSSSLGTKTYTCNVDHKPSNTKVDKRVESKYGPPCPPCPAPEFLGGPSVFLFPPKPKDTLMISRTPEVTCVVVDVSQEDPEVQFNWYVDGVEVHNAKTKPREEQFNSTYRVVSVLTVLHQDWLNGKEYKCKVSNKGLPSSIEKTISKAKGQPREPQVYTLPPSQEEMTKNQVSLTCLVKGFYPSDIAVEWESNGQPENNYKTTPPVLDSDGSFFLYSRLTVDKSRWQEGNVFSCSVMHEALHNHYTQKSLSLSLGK
light: EILLTQSPAIMSATLGEKVTMSCRASSNVRYMYWYQLKSGASPKLWIYLTSNLASGVPARFSGSGSGTSYSLTISSVEAEDAATYFCQQFTTSPYTFGGGTKLEIKRTVAAPSVFIFPPSDEQLKSGTASVVCLLNNFYPREAKVQWKVDNALQSGNSQESVTEQDSKDSTYSLSSTLTLSKADYEKHKVYACEVTHQGLSSPVTKSFNRGEC
notes: Mouse variable regions on human IgG4 / kappa; also called xi72C1
B3: chimeric 84C4 antibody (antibody, human IgG4 S228P, kappa)
heavy: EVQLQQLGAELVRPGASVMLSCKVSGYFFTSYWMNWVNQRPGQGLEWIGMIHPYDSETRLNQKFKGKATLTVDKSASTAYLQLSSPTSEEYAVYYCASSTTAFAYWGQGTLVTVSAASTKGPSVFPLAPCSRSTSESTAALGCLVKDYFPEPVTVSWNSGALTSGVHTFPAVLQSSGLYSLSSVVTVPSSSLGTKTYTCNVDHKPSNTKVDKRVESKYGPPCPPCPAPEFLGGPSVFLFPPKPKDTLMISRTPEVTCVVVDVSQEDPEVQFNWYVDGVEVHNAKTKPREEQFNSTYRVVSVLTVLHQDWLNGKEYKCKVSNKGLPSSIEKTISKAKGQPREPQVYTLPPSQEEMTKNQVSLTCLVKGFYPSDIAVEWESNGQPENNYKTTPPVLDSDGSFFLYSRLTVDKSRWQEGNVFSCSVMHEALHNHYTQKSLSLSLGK
light: DILMTQSPSSLSASLGERVSLTCRASQDIGNALNWLQQAPDGTIKRLIYATSSLDPGVPKRFSGSRSGSDYSLTISSLASEDFVYYYCLQYASSPYTFGGGTKLEIKRTVAAPSVFIFPPSDEQLKSGTASVVCLLNNFYPREAKVQWKVDNALQSGNSQESVTEQDSKDSTYSLSSTLTLSKADYEKHKVYACEVTHQGLSSPVTKSFNRGEC
notes: Mouse variable regions on human IgG4 / kappa; also called xi84C4

Biological target: T1, cynomolgus IL-36R overexpressed on …
Test: FACS on 293T-CynoIL36R-NFκB cells, ratio of MFI to background MFI
Protocol: After the cells was washed with PBS, the cells were resuspended with 100 μL of PBS and then the fluorescence signal was detected using a flow cytometer (BD, Accuri C6). […] The ratio was the ratio of mean fluorescence intensity (MFI) of the experimental group/the background MFI, and the resulting data were analyzed using GraphPad Prism.

Row | EC50 [nM] | Binder
1 | 9.64 | B1
2 | 8.96 | B2
3 | 36.6 | B3

Biological target: T2, CynoIL36R-ECD mFc recombinant protein
Test: ELISA, plate coated with CynoIL36R-ECD mFc, HRP-protein A/G, OD450
Protocol: (§1) The binding activity of anti-IL-36R antibodies to IL-36R was analyzed by ELISA using human IL-1Rrp2/IL-1R6 protein, His Tag (ACROBiosystems, IL2-H52H6) and CynoIL36R-ECD mFc (for detection of chimeric and humanized antibodies), and hIL36R-ECD hFc and CynoIL36R-ECD hFc protein (for detection of hybridoma antibodies) as antigens. A 96-well plate (Costar, 9018) was coated with 2 μg/mL antigen at 100 μL/well and incubated overnight at 4° C. After the 96-well plate was washed with a washing buffer (PBS containing 0.05% v/v Tween 20), a blocking buffer (PBS containing 2% bovine serum albumin) was added for blocking at 37° C. for 2 h. After the 96-well plate was washed with the washing buffer, 100 μL of the gradient diluted anti-IL-36R antibody of the present disclosure or the reference antibody BI655130 (the initial concentration of the antibody was 66 nM, 4-fold gradient dilution) was added to each well, and the plate was incubated at room temperature for 1 h. After the 96-well plate was washed with the washing buffer, 100 μL of horseradish peroxidase-conjugated recombinant protein A/G (TheroScientific, 32490) was added to each well, and the plate was incubated at room temperature for 1 h. After the 96-well plate was washed with the washing buffer, 100 μL of a TMB solution (Thermo, 00-4201-56) was added to each well, and the plate was incubated at room temperature for 2 min. Finally, 100 μL of a stop solution (2 N H₂SO₄) was added to each well to stop the reaction. Absorbance was read at 450 nm using a microplate reader (PE, Envision), the resulting data was analyzed using GraphPad Prism, and EC₅₀ was calculated. Binding EC₅₀ of the chimeric anti-IL-36R antibodies to hIL-36R in an ELISA assay is shown in FIG. 1. and binding EC₅₀ of the chimeric anti-IL-36R antibodies to CynoIL-36R in an ELISA assay is shown in FIG. 2. The binding of BI655130 is shown as a control, and the binding of IgG4 is shown as a negative control.

Row | EC50 [nM] | Binder
4 | 1.89 | B1
5 | 3.02 | B2
6 | 21.9 | B3

What follows are binders tested against T3, Human IL-1Rrp2/IL-1R6 protein, His Tag … (assay: ELISA, plate coated with human IL-1Rrp2/IL-1R6 His Tag, HRP-protein A/G, OD450).
Protocol: as §1

Row | EC50 [nM] | Binder
7 | 0.761 | B1
8 | 2.62 | B2
9 | 0.97 | B3
